The target of experiment [1] is human GPC3 (form in the assay not stated) (human, UniProt P51654 25-559, limits assumed). Description: method not stated.
The target in experiment [2] is T1, Human NKp46 antigen (Acro Biosystems) expressed on HEK293 cells or CHO cells (human, UniProt O76036 22-255).
T1 construct: Bought
Description: ELISA on coated human NKp46 antigen, normalized binding curve. (An ELISA detects its analyte on a solid surface through an enzyme-linked reagent.)

Experiment [3] has as its target T2, human NKp46 (form in the assay not stated) (human, UniProt O76036 22-255, limits assumed). Description: BIAcore. On the technique in general: Surface plasmon resonance follows binding to a sensor surface in real time, without labels.
In experiment [4] the target is T2, human NKp46 (form in the assay not …). The experiment is described as follows: BIAcore; SE(KD) 2.20E-10.

T2 sequence (O76036 22-255 limits assumed): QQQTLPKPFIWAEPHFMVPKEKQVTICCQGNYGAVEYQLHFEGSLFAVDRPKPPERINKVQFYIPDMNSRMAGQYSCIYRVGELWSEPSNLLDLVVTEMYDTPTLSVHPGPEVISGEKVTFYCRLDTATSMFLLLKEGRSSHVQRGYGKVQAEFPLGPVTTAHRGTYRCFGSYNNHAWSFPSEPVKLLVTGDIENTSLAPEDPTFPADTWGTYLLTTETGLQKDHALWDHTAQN
T1 sequence (O76036 22-255 limits assumed): as above
human GPC3 (form in the assay not stated), sequence (P51654 25-559 limits assumed): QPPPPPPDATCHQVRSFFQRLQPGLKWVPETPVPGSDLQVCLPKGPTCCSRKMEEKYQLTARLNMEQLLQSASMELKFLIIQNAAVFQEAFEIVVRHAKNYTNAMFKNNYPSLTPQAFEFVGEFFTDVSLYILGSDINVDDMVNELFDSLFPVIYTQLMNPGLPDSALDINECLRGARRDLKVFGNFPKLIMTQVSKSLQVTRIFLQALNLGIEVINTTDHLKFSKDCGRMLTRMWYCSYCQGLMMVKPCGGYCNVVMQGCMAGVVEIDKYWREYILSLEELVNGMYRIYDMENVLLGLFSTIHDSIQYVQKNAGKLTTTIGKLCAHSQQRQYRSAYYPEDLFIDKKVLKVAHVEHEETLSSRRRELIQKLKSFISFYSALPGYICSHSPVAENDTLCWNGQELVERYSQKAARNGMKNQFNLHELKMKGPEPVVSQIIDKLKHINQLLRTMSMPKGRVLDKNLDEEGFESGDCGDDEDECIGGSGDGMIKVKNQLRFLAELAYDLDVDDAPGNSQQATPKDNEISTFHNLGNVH

B1: NKE1 (GPC3/NKp46/wt_IgG1), FLEX-NK tetravalent NKp46 engager directed against GPC3 (bispecific antibody)
heavy: not shown
light 1: DIVMTQSPATLSLSPGERATLSCRASQSISDYLHWFQQKPHESPRLLIKYASQSISGIPARFSGSGSGSDFTLTISSLEPEDFAVYYCQNGHSFPLTFGPGTKVDIKRTVAAPAVFIFPPSDEQLKSGTASVVCLLKNFYPREAKVQWKVDNALQSGNSQESVTEQDSKDSTYSLSSTLTLSKADYEKHKVYACEVTHQGLSSPVTKSFNRGEC
light 2: not shown
notes: Tetravalent; also called wildtype NKE1; copies: 2 + 2 + 2
For B1, the “fold higher affinity compared to human NKp46” value in experiment [1] was around 50 fold.

B2: humanized 09 anti-NKp46 antibody (antibody, IgG4, V domains shown)
VH: EVQLQQSGAEVKKPGSSVKVSCKTSGYTFTEYSMHWVRQAPGKSLEWFGGISPNSGGTSYNQKFKGRATLTVDKSSSTAYMELSSLRSEDTAVYYCARRDFHSSFDYWGQGTTVTVSS
VL: DIVMTQSPATLSLSPGERATLSCRASQSISDYLHWFQQKPHESPRLLIKYASQSISGIPARFSGSGSGSDFTLTISSLEPEDFAVYYCQNGHSFPLTFGPGTKVDIK
notes: Humanized with an IgG4 framework; ELISA used MAbs with humanized variable and mutated IgG4, kappa light chain detected; also called 09 antibody humanized
As for B2, in experiment [2], the Kd (in general, the equilibrium constant for the complex coming apart) was around 0.027 nM.

B3: humanized 12 anti-NKp46 antibody (antibody, IgG4, V domains shown)
VH: EVQLQQSGAEVKKPGSSVKVSCKTSGYTFTEYSMHWVRQAPGKSLEWFGGISPNSGGTSYNQKFKGRATLTVDKSSSTAYMELSSLRSEDTAVYYCARRDFHSSFDYWGQGTTVTVSS
VL: DIVLTQSPATLSLSPGERATLSCRASQSISDYLHWFQQKPHESPRLLIKYASQSISGIPARFSGSGSGSDFTLTISSLEPEDFAVYYCQNGHSFPLTFGPGTKVDIK
notes: Humanized with an IgG4 framework; ELISA used MAbs with humanized variable and mutated IgG4, kappa light chain detected; also called 12 antibody humanized
The molecule B3 came in with a Kd in experiment [2] of around 0.025 nM.

B4: mouse anti-NKp46 monoclonal antibody 09 (antibody, V domains shown)
VH: EVQLQQSGPELVKPGTSVKISCKTSGYTFTEYSMHWVKQSHGKSLEWFGGISPNSGGTSYNQKFKGKATLTVDKSSSTAYMELRSLTSEDSAVYYCARRDFHSSFDYWGQGTTLTVSS
VL: DIVMTQSPATLSVTPGDRVSLSCRASQSISDYLHWFQQKSHESPRLLIKYASQSISGIPSRFSGSGSGSDFTLSINSVEPEDVGVYYCQNGHSFPLTFGPGTKLELK
notes: Mouse hybridoma antibody raised in NKp46-deficient mice against NKp46-Ig; also called 09 antibody; mAb 09
Take B4: the kon (as a rule, the second-order rate constant of association) in experiment [3] is 6.22e+07 M⁻¹ s⁻¹.

B5: mouse anti-NKp46 monoclonal antibody 12 (antibody, V domains shown)
VH: EVQLQQSGPELVKPGTSVKISCKTSGYTFTEYSMHWVKQSHGKSLEWFGGISPNSGGTSYNQKFKGKATLTVDKSSSTAYMELRSLTSEDSAVYYCARRDFHSSFDYWGQGTTLTVSS
VL: DIVLTQSPATLSVTPGNSVSLSCRASQSISDYLHWFQQKSHESPRLLIKYASQSISGIPSRFSGSGSGSDFTLSINSVEPEDVGVYYCQNGHSFPLTFGPGTKLELK
notes: Mouse hybridoma antibody; also called 12 antibody; mAb 12
For B5, the Kd in experiment [4] worked out at 1.67 nM.

For the origin of these results see patent US20240199759A1 (CYTOVIA THERAPEUTICS, published 2024).
